The values that follow come from US20250270324A1 (INVOX PHARMA, published 2025).

To fix the notation:
B1: G1/280_02_G02_NS (antibody, human IgG1)
heavy: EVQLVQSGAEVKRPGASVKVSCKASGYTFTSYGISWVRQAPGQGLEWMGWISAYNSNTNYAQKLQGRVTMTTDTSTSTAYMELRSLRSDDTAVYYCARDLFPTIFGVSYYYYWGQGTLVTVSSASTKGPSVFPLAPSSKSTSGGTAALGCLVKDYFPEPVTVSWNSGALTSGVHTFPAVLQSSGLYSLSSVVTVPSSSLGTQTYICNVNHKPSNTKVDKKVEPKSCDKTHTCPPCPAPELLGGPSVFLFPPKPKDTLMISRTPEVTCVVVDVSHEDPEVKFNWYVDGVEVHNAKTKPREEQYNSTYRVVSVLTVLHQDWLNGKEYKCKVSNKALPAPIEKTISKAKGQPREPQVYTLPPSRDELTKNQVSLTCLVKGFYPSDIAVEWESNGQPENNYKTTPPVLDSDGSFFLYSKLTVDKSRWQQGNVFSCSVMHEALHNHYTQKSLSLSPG
light: QSALTQPASVSGSPGQSITISCTGTSSDVGGYNSVSWYQQFPGKAPKLMIFEVTNRPSGVSDRFSGSKSDNTASLTISGLQAEDEAEYYCSSFKRGSTLVVFGGGTKLTVLGQPAAAPSVTLFPPSSEELQANKATLVCLISDFYPGAVTVAWKADSSPVKAGVETTTPSKQSNNKYAASSYLSLTPEQWKSHRSYSCQVTHEGSTVEKTVAPTECS
notes: IgG1 without LALA, lambda light chain; NG to NS variant of G1/280_02_G02
B2: G1AA/280_02_G02_NS (antibody, human IgG1, L234A L235A)
heavy: not shown
light: B1 light
notes: also called G1AA/280_2_G02_NS
B3: G1/929_01_A01 (antibody, human IgG1, V domains shown)
VH: EVQLVQSGAEVKRPGASVKVSCKASGYTFTSYGISWVRQAPGQGLEWMGWISAYGGSTNYAQKLQGRVTMTTDTSTSTAYMELRSLRSDDTAVYYCARDLFPTIFGVSYYYYWGQGTLVTVSS
VL: DIQMTQSPSTLSASVRDRVIITCRASQSIGNRLAWYQHKPGKAPKLLIYEASTSETGVPSRFSGSGSGTDFTLTISSLQPEDFATYYCQQSYSTPYTFGQGTKLEIKR
notes: IgG1; The heavy chain as printed has T28
B4: G1/929_01_A05 (antibody, human IgG1, V domains shown)
VH: B3 VH with G55S, S57G
VL: DIQMTQSPSTLSASVGDRVTITCRASQSISGRLAWYQQKPGKAPNLLIYEASNLESGVPSRFSGSGSGTEFTLTINSLQPDDFATYYCQQANTFPRVSFGGGTKVEIKR
notes: IgG1
B5: G1/929_01_A07 (antibody, human IgG1, V domains shown)
VH: B3 VH
VL: B4 VL with N76S, D81E, A91S, N92Y, T93S, F94T, S98T, G101Q
notes: IgG1; GGST variant of G1/894_08_E05
B6: G1/894_08_A05 (antibody, human IgG1, V domains shown)
VH: B3 VH with G55N, G56S, S57N
VL: B4 VL
notes: IgG1 without LALA, kappa light chain
B7: G1/929_01_A06 (antibody, human IgG1, V domains shown)
VH: B3 VH with G55S, S57N, T58A
VL: B4 VL
notes: IgG1
B8: G1/929_01_A09 (antibody, human IgG1, V domains shown)
VH: B3 VH with G55S, S57N, T58A
VL: B4 VL with N76S, D81E, A91S, N92Y, T93S, F94T, S98T, G101Q
notes: IgG1; SGNA variant of G1/894_08_E05
B9: G1/929_01_A04 (antibody, human IgG1, V domains shown)
VH: B3 VH
VL: B4 VL
notes: IgG1; GGST variant of G1/894_08_A05
B10: G1/929_01_A08 (antibody, human IgG1)
heavy: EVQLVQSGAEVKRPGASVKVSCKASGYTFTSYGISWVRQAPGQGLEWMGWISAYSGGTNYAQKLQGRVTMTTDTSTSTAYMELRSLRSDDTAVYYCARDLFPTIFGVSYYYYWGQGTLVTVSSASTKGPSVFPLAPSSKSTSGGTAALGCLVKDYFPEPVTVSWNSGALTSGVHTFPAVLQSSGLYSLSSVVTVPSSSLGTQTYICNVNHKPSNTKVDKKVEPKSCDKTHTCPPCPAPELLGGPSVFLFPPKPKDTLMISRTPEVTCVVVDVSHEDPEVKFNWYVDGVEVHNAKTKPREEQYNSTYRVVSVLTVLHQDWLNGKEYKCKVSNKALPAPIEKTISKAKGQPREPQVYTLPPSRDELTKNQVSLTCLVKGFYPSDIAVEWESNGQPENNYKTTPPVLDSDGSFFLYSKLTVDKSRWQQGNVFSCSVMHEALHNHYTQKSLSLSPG
light: DIQMTQSPSTLSASVGDRVTITCRASQSISGRLAWYQQKPGKAPNLLIYEASNLESGVPSRFSGSGSGTEFTLTISSLQPEDFATYYCQQSYSTPRVTFGQGTKVEIKRTAAAAPSVFIFPPSDEQLKSGTASVVCLLNNFYPREAKVQWKVDNALQSGNSQESVTEQDSKDSTYSLSSTLTLSKADYEKHKLYACEVTHQGLSSPVTKSFNRGEC
notes: IgG1; SGGT variant of G1/894_08_E05; said to be the same as G1AA/E05v2 but without the LALA mutation
B11: G1/929_01_A03 (antibody, human IgG1, V domains shown)
VH: B3 VH with G55S, S57N, T58A
VL: B3 VL
notes: IgG1
B12: G1/929_01_A11 (antibody, human IgG1)
heavy: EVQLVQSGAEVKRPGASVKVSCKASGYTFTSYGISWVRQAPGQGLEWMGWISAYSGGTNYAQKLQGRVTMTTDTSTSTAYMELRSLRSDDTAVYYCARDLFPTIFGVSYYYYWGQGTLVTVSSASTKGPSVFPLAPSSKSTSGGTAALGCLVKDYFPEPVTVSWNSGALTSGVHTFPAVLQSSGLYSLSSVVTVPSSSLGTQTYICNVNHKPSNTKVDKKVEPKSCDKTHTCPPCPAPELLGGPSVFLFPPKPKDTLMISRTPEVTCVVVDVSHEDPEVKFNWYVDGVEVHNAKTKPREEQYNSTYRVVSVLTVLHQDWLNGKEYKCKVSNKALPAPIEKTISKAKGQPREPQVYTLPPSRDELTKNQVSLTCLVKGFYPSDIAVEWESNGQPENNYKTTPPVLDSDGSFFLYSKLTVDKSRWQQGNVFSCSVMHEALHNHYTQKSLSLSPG
light: DIQMTQSPSTLSASVGDRVTITCRASQSISGRLAWYQQKPGKAPNLLIYEASNLESGVPSRFSGSGSGTEFTLTISSLQPEDFATYYCQQSYSWPRTFGQGTKVEIKRTAAAAPSVFIFPPSDEQLKSGTASVVCLLNNFYPREAKVQWKVDNALQSGNSQESVTEQDSKDSTYSLSSTLTLSKADYEKHKLYACEVTHQGLSSPVTKSFNRGEC
notes: IgG1; said to be the same as G1AA/G12v2 but without LALA
B13: G1/929_01_A12 (antibody, human IgG1, V domains shown)
VH: B3 VH with G55S, S57N, T58A
VL: DIQMTQSPSTLSASVGDRVTITCRASQSISGRLAWYQQKPGKAPNLLIYEASNLESGVPSRFSGSGSGTEFTLTISSLQPEDFATYYCQQSYSWPRTFGQGTKVEIKR
notes: IgG1
B14: G1/929_01_A10 (antibody, human IgG1, V domains shown)
VH: B3 VH
VL: B13 VL
notes: IgG1
B15: G1AA/lambdav3 (antibody, human IgG1, L234A L235A, V domains shown)
VH: B3 VH with G55S, S57G
VL: QSALTQPASVSGSPGQSITISCTGTSSDVGGYNYVSWYQQFPGKAPKLMIFEVTNRPSGVSDRFSGSKSDNTASLTISGLQAEDEAEYYCSSFKRGSTLVVFG
notes: IgG1 with LALA, lambda light chain; also called G1AA/lamdav3
B16: G1AA/E12v2 (antibody, human IgG1, kappa, L234A L235A, V domains shown)
VH: B3 VH with T28P, G55S, S57G
VL: B3 VL
notes: IgG1 with LALA, kappa light chain; SGGT at 54-57 and proline at Kabat 28 of VH
B17: G1AA/G12v2 (antibody, human IgG1, kappa, L234A L235A)
heavy: not shown
light: DIQMTQSPSTLSASVGDRVTITCRASQSISGRLAWYQQKPGKAPNLLIYEASNLESGVPSRFSGSGSGTEFTLTISSLQPEDFATYYCQQSYSWPRTFGQGTKVEIKRTVAAPSVFIFPPSDEQLKSGTASVVCLLNNFYPREAKVQWKVDNALQSGNSQESVTEQDSKDSTYSLSSTLTLSKADYEKHKVYACEVTHQGLSSPVTKSFNRGEC
notes: IgG1 with LALA, kappa light chain
B18: G1AA/E05v2 (antibody, human IgG1, kappa, L234A L235A)
heavy: not shown
light: DIQMTQSPSTLSASVGDRVTITCRASQSISGRLAWYQQKPGKAPNLLIYEASNLESGVPSRFSGSGSGTEFTLTISSLQPEDFATYYCQQSYSTPRVTFGQGTKVEIKRTVAAPSVFIFPPSDEQLKSGTASVVCLLNNFYPREAKVQWKVDNALQSGNSQESVTEQDSKDSTYSLSSTLTLSKADYEKHKVYACEVTHQGLSSPVTKSFNRGEC
notes: as for B17

Substitutions are numbered along the chain they refer to.

T5 sequence (Q9NZQ7 19-238 limits assumed): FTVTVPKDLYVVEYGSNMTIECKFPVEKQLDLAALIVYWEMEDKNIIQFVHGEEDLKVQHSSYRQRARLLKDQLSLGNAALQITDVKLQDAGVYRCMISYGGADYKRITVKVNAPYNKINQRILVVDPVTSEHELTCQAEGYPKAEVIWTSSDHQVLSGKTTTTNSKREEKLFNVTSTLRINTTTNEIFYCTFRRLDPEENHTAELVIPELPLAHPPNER
T4 sequence (G7PSE7 entry or part of it): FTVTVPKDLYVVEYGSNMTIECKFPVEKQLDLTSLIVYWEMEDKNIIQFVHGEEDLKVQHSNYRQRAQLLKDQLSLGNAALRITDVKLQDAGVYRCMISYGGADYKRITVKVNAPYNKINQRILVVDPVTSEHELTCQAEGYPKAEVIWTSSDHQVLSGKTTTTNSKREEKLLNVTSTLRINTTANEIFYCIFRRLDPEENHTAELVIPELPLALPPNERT

The target in one test is PD-L1 on PD-L1 cells (Promega, CS178103; PD1/PD-L1 Blockade Bioassay J1250/J1255) (UniProt Q9NZQ7 19-290). As to the kind of experiment: cell-based or functional assay.
Sequence of PD-L1 on PD-L1 cells (Promega, CS178103; PD1/PD-L1 Blockade Bioassay J1250/J1255) (Q9NZQ7 19-290): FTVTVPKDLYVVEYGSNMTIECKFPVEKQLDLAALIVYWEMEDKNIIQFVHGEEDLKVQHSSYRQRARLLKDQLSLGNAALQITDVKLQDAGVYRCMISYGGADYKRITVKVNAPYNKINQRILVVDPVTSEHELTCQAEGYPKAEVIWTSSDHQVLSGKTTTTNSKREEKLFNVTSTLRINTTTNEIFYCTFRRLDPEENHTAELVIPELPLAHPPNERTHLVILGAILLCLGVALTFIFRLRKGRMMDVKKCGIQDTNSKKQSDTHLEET
Consider B1, for which the “IC50 (nM), PD1/PD-L1 Blockade Bioassay” value is 0.51 nM.

The target of another test is T1, mouse PD-L1-His (Acro Biosystems, PD1-M5220) (mouse, UniProt Q9EP73 19-238).
T1 construct: Bought; also called recombinant mouse PD-L1
T1 sequence (Q9EP73 19-238 limits assumed): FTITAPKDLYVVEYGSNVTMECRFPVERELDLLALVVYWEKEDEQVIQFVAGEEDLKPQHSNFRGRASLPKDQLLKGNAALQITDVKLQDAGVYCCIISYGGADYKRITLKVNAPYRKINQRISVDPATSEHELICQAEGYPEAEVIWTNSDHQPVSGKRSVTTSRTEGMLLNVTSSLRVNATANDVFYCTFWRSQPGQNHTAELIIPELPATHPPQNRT
As to the kind of experiment: SPR (Biacore T200), mAb on Protein A chip, antigen 81-0.037 nM; Rmax of the human profile used. As for the experimental part: (§1) Briefly, the anti-PD-L1 mAbs, diluted in HBS-EP buffer (GE Healthcare, BR100188) at 2 μg/ml, were injected individually on flows cell 2, 3 and 4 of a Protein A chip (GE Healthcare, 29127556) at 30 μl/min to achieve a final response of approximately 110 RU. The recombinant human, cynomolgus and mouse PD-L1-His antigens, diluted in HBS-EP buffer, were injected on flow cell 1, 2, 3 or 4 as appropriate at a concentration range of 81 nM to 0.037 nM with 3-fold dilutions for 4 min at 75 μl/min and then allowed to dissociate in buffer for 10 min. Regeneration was achieved by injecting 10 mM glycine-HCL pH1.5 (GE Healthcare, Human Antibody Capture Kit, BR00356) for 30 sec at a rate of 30 μl/min. Subtracted data (flow cell 2-flow cell 1, flow cell 3-flow cell 1, or flow cell 4-flow cell 1) were analysed using BIAevaluation 3.2 Software (GE Healthcare) to identify binding using the model 1:1 binding with mass transfer, with refractive index (RI) constant 0. To determine the affinities of the mouse PD-L1 binding curves, the Rmax of the corresponding human binding profiles was used.
For orientation: SPR reads the build-up and loss of mass on a sensor chip optically.
Consider B2, for which the affinity, expressed as Kd, was 137 nM.

The next test deals with T2, Cyno PD-L1-rCD4-His (cynomolgus).
T2 construct: The entry as printed begins with the signal peptide; also called cynomolgus PD-L1-rCD4-His
T2 sequence (chain, as listed by the source limits assumed): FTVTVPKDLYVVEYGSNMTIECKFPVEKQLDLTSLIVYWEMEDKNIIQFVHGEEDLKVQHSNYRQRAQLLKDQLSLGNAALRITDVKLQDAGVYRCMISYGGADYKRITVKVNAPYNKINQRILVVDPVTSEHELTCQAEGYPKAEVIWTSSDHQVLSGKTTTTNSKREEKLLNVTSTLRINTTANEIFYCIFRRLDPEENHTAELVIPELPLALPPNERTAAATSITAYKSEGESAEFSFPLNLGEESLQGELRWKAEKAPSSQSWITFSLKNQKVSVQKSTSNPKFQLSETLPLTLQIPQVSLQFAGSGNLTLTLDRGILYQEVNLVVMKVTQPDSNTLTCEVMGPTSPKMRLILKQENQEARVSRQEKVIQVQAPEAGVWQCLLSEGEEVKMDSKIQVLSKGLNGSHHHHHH
As to the kind of experiment: SPR, IgG1 from culture supernatant.
In turn, B1 had a Kd of 1.8 nM.
Same read-out and setting: the result for B3 reads 3.18 nM; that for B4, 0.62 nM; that for B5, 0.59 nM.
The molecule B6 displayed a Kd of 0.57 nM.
Turning to B7, the Kd was determined as 0.58 nM.
Regarding B8, the affinity, expressed as Kd, was 0.57 nM.
On the same count and under the same terms, with B9 the figure was 0.6 nM; with B10, 0.65 nM.
The same measure, in the same setting: with B11 the figure was 3.31 nM; with B12, 0.57 nM; with B13, 0.66 nM.
Same read-out and setting: with B14 the figure was 0.6 nM.

The next test deals with T3, human PD-L1-rCD4-His (human).
T3 construct: Human PD-L1 fused to the monomeric C-terminal rat CD4 domains 3 and 4 tag and His tag; made in HEK293; The entry as printed begins with the signal peptide (MRIF...); also called hPD-L1-rCD4-His; hu-PD-L1-rCD4-His
T3 sequence (chain, as listed by the source limits assumed): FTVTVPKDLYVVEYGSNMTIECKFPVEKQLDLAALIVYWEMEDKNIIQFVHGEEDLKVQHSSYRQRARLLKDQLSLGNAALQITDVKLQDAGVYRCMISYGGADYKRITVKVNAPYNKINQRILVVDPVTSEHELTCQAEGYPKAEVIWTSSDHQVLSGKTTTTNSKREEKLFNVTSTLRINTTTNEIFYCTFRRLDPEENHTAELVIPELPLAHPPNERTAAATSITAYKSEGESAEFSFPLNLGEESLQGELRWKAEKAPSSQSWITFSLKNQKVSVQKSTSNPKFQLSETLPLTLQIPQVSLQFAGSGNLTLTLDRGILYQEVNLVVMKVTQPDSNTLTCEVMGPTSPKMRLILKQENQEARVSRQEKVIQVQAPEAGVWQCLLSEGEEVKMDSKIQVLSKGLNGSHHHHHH
As to the kind of experiment: SPR, IgG1 from culture supernatant.
As for B1, the Kd is 1.2 nM.
The same measure, in the same setting: the result for B3 reads 2.66 nM.
Still for that read-out and setting: with B4 the figure was 0.55 nM.
For B5, the affinity, expressed as Kd, was 0.47 nM.
On the same count and under the same terms, the result for B6 reads 0.42 nM; that for B7, 0.45 nM; that for B8, 0.49 nM.
The same measure, in the same setting: the result for B9 reads 0.47 nM; that for B10, 0.5 nM; that for B11, 2.66 nM.
B12 gave a Kd of 0.51 nM.
The same measure, in the same setting: with B13 the figure was 0.51 nM.
B14: the Kd was 0.42 nM.

A further test has as its target T4, cynomolgus PD-L1-His (Acro Biosystems, PD1-C52H4) (cynomolgus, UniProt G7PSE7 19-239).
T4 construct: Bought; also called Cyno PD-L1-His
As to the kind of experiment: SPR (Biacore T200), mAb on Protein A chip, antigen 81-0.037 nM. As for the experimental part: as §1
B2 displayed a Kd of 1.32 nM.

The next test has as its target T5, biotinylated human PD-L1-Avi-His (Acro Biosystems, PD1-H82E5) (human, UniProt Q9NZQ7 19-238, biotinylated).
T5 construct: Bought
Described as above. The procedure:
as §1
Molecule B2 registered a Kd of 1.1 nM.

Another test concerns the target T4, cynomolgus PD-L1-His (Acro Biosystems, …). As to the kind of experiment: SPR as in Example 3.2, mAb on Protein A chip. The procedure: as §1
Molecule B15 showed a Kd of 2.45 nM.
B16 had a Kd of 0.37 nM.
The molecule B17 gave a Kd of 0.75 nM.
B18 came in with a Kd of 0.89 nM.

For another test, the target named is T5, biotinylated human PD-L1-Avi-His (Acro …). As to the kind of experiment: SPR as in Example 3.2, mAb on Protein A chip. The procedure: as §1
Molecule B15 came in with a Kd of 1.34 nM.
Molecule B16 showed a Kd of 0.21 nM.
The same measure, in the same setting: with B17 the figure was 0.44 nM; with B18, 0.5 nM.

Usually Kd stands for the concentration at which binding is half-saturated.
